Experimental findings from publication doi:10.1101/2025.11.26.690573 are described below.

Experiment [1] deals with biotinylated N8~CRL1 with wild type RBX1 (UniProt Q15843). The experiment can be described thus: BLI; CSN and N8~CRL1 in a saturating amount of CSN5i-3; who was immobilised not given. (In general: Biolayer interferometry detects binding as a change in optical thickness at a sensor tip.)
For experiment [2] the target is unchanged. In words: BLI; CSN and N8~CRL1 in a saturating amount of CSN5i-1a; who was immobilised not given.

In experiment [1], “COP9 signalosome (CSN), eight-subunit complex, tag-free (from UniProt Q13098 1-491; P61201 1-443; Q9UNS2 1-409; Q9BT78 1-406; Q92905 1-334; Q7L5N1 1-327; Q9H9Q2 1-239; Q99627 1-209)” returned a KD with CSN5i-3 of 26 nM. This substance also returned a KD with CSN5i-1a in experiment [2] of 1800 nM.
